Experimental data from article PMC8596624.

Tests used:
[1] = molecular target: T1, WHTS, trimeric spike protein, wild-type (Wuhan) (SARS-CoV-2 (Wuhan), UniProt P0DTC2 14-1213); test: electrochemical impedance
[2] = molecular target: T1, WHTS, trimeric spike protein, wild-type …; test: electrochemical impedance; remark: listed apart in the source
[3] = molecular target: T1, WHTS, trimeric spike protein, wild-type …; test: electrochemical impedance; remark: listed apart in the source
[4] = molecular target: T1, WHTS, trimeric spike protein, wild-type …; test: dot blot
[5] = molecular target: WH-S1, spike S1 subunit, wild-type (SARS-CoV-2 (Wuhan), UniProt P0DTC2 14-685); test: dot blot

B1: DSA1N5-SH (structured_DNA)
DNA: TTCCGGTTAATTTATGCTCTACCCGTCCACCTACCGGAATTTTTTTTTTTTTTTTTTTTTTTTTTTTTTACGGGTTTGGCGTCGGGCCTGGCGGGGGGATAGTGCGGTTTTT
modifications: 3' thiol (3ThioMC3-D)
binding result [1]: binds

ACGGGTTTGGCGTCGGGCCTGGCGGGGGGATAGTGCGGTTTTT (structured_DNA, 3' thiol (3ThioMC3-D)) [MSA5T-SH]
binding result [2]: binds

TTCCGGTTAATTTATGCTCTACCCGTCCACCTACCGGAATTTT (structured_DNA, 3' thiol (3ThioMC3-D)) [MSA1T-SH]
binding result [3]: binds

B2: DMC (ssDNA)
DNA: CTATATCCCTTTAAGCCTGTGGGTCCACGAATCTACCTCTTTTTTTTTTTTTTTTTTTTTTTTTTTTTTGCGTTCGGAGTGGGTCGTGCGGCGCGGGACGAGTGGTGT
binding result [4]: no binding

TTCCGGTTAATTTATGCTCTACCCGTCCACCTACCGGAA (structured_DNA) [MSA1T]
Kd [4]: 11.9 ± 1.8 nM

B3: MSA1 (structured_DNA)
DNA: TTACGTCAAGGTGTCACTCCCACTTTCCGGTTAATTTATGCTCTACCCGTCCACCTACCGGAAGCATCTCTTTGGCGTG
binding result [5]: binds

B4: MSA5 (structured_DNA)
DNA: TTACGTCAAGGTGTCACTCCACGGGTTTGGCGTCGGGCCTGGCGGGGGGATAGTGCGGTGGAAGCATCTCTTTGGCGTG
binding result [5]: binds

CTATATCCCTTTAAGCCTGTGGGTCCACGAATCTACCTC (ssDNA) [M1C]
binding result [4]: no binding

GCGTTCGGAGTGGGTCGTGCGGCGCGGGACGAGTGGTGT (ssDNA) [M5C]
binding result [4]: no binding
